Laboratory results from US20160264651A1 (Hoffmann-La Roche, published 2016).
Numbering of substitutions follows the chain as printed.

Experiments:
[1] = molecular target: T1, TNC Fn5-A1-murineA2-A3 antigen construct (murine TNC A2 domain in the context of domains A1 and A3), E. … (human; murine, UniProt P24821 991-1075; Q80YX1 1076-1257; P24821 1258-1350, limits assumed, biotinylated); experiment: SPR, Biacore T100, biotinylated antigen on streptavidin chip, Fab as analyte
T1 construct: domain: fifth fibronectin type III domain (Fn5);domain: A1 and A2 domain;domain: A3 domain; also called Immob E. coli Ag
T1 sequence (looked up): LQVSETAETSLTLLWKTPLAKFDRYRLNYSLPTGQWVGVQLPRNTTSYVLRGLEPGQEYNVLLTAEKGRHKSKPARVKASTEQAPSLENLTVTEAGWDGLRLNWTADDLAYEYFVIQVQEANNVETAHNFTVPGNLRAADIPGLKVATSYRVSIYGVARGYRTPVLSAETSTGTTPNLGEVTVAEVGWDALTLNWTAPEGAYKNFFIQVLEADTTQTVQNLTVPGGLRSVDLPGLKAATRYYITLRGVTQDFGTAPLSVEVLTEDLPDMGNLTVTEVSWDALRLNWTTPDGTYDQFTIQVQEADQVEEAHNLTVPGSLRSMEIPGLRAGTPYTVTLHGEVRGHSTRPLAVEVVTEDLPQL
Procedure: (§1) The affinity of the TNC A2 2B10 Fab fragment as well as of the human IgG1 converted TNC A2 2B10 antibody was subsequently determined and confirmed for human, murine and cynomolgus TNC A2 domain by surface plasmon resonance using a BIACORE® T100 machine (GE Healthcare) at 25° C. For this purpose the biotinylated antigens (expressed in E. coli, antigen in context but not glycosylated) were immobilized on a streptavidin chip and the constructs were used as analytes. For immobilization the antigens were diluted with HBS-EP+ (GE Healthcare, 10 mM HEPES, 150 mM NaCl, 3 mM EDTA, 0.05% Surfactant P20, pH 7.4) to 0.1 μg/ml before injection at a flow rate of 10 μl/minute to achieve approximately 80 response units (RU) of coupled protein. The TNC A2 domain from man, mouse and cynomolgus monkey was expressed in the context of the domains A1 and A3. The antigen constructs comprising the fifth fibronectin type III domain of human TNC (Fn5), the A1 and A2 domain of either human, murine or cynomolgus TNC, and the A3 domain of human TNC (TNC Fn5-A1-human/murine/cynoA2-A3) are shown in SEQ ID NOs 99-104.
(§2) For kinetics measurements, two-fold serial dilutions of Fab fragments (range between 1.56 nM to 100 nM) or IgG (range between 0.39 nM to 25 nM) were injected in HBS-EP+ at 25° C. at a flow rate of 50 μl/min. Association and dissociation times were 180 s and a regeneration with 10 mM glycine pH 1.5 for 60 s was performed between cycles. Association rates (kₒₙ) and dissociation rates (koff) were calculated using a simple one-to-one Langmuir binding model (BIACORE® T100 Evaluation Software version 1.1.1) by simultaneously fitting the association and dissociation sensorgrams. The equilibrium dissociation constant (KD) was calculated as the ratio koff/kₒₙ. See, e.g., Chen et al., J Mol Biol 293, 865-881 (1999)

[2] = molecular target: T2, TNC Fn5-A1-cynoA2-A3 antigen construct (cynomolgus TNC A2 domain in the context of domains A1 and A3), E. … (human; cynomolgus, UniProt P24821 991-1075; P24821 1258-1350); experiment: as above
T2 construct: also called Cyno TNC; Immob E. coli Ag
Procedure: as §1, §2

[3] = molecular target: T3, TNC Fn5-A1-humanA2-A3 antigen construct (human TNC A2 domain in the context of domains A1 and A3), E. … (human, UniProt P24821 991-1075; P24821 1076-1257; P24821 1258-1350, limits assumed, biotinylated); experiment: as above
T3 construct: domain: fifth fibronectin type III domain (Fn5);domain: A1 and A2 domain;domain: A3 domain; Not glycosylated; also called Immob E. coli Ag
T3 sequence (looked up): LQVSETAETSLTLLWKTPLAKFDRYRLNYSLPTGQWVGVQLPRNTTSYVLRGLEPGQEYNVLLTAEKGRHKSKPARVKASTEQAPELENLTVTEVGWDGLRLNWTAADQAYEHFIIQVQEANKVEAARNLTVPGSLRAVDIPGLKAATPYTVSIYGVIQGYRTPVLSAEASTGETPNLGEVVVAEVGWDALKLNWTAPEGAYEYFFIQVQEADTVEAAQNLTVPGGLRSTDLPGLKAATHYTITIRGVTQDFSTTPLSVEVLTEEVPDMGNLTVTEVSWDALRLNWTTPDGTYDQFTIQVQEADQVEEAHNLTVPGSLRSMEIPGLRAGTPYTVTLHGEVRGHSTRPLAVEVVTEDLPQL
Procedure: as §1, §2

[4] = molecular target: T4, E. coli-expressed human TNC A2 with C-terminal avi-tag and 6xHis-tag, biotinylated (human, biotinylated in vivo upon expression (avi-tag)); experiment: ELISA, biotinylated human TNC-A2 on neutravidin plates, Fab supernatants detected by anti-Flag/HRP
T4 construct: Used for the selections and ELISA; also called hu TNC A2; biotinylated human TNC A2
T4 chain: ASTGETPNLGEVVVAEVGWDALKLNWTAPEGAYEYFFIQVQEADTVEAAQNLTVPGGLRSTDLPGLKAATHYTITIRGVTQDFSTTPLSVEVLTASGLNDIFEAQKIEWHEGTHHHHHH
Procedure: Selections were carried out over 3 rounds using constant antigen concentrations at 100 nM. In round 2, capture of antigen:phage complexes was performed on neutravidin plates instead of streptavidin beads. Specific binders were identified by ELISA as follows using: 100 μl of 100 nM biotinylated human TNC-A2 was coated in each well of neutravidin plates. Fab-containing bacterial supernatants were added and binding Fabs were detected via their Flag-tags by using an anti-Flag/HRP secondary antibody. Once identified, clone 2B10 was bacterially expressed in a 0.5 litre culture volume, affinity purified and further characterized by SPR-analysis using BIACORE T100. See SEQ ID NOs: 56 and 60.

[5] = molecular target: T1, TNC Fn5-A1-murineA2-A3 antigen …; experiment: SPR, Biacore T100, biotinylated antigen on streptavidin chip, IgG as analyte (avidity)
Procedure: as §1, §2

[6] = molecular target: T2, TNC Fn5-A1-cynoA2-A3 antigen construct …; experiment: as above
Procedure: as §1, §2

[7] = molecular target: T3, TNC Fn5-A1-humanA2-A3 antigen construct …; experiment: as above
Procedure: as §1, §2

[8] = molecular target: T4, E. coli-expressed human TNC A2 with …; experiment: selection on human TNC A2, ELISA and ProteOn screening
Procedure: Selections were carried out against E. coli expressed human TNC A2 which was cloned upstream an avi-tag and 6×his-tag (see SEQ ID NO: 97). The antigen was biotinylated in vivo upon expression. Selections have been carried out in solution as described for the primary TNC A2 selections using decreasing concentrations of human TNC A2 ranging from 100 to 2 nM. After identification of affinity-matured clones by ELISA, secondary screenings were carried out using a ProteOn XPR36 biosensor (Biorad) and kinetic rate constants and affinities were determined analyzing affinity-purified Fab preparations on the same instrument. KD was measured by surface plasmon resonance using a ProteOn XPR36 machine (Biorad) at 25° C. with antigens immobilized on NLC sensor chips (Biorad). Briefly, recombinant antigen was diluted to 10 μg/ml in PBS/0.005% Tween-20, pH 7.4 and injected at […] for 100 to 300 s to achieve approximately 200-800 response units (RU) of coupled antigen. […] Association rates (kₒₙ) and dissociation rates (koff) were calculated using a simple one-to-one Langmuir binding model (ProteOn manager software version 2.1) by simultaneously fitting the association and dissociation sensorgrams. The equilibrium dissociation constant (KD) is calculated as the ratio koff/kₒₙ.

B1: 2B10 anti-TNC A2 Fab fragment (parental clone 2B10) (Fab, V domains shown)
VH: QVQLVQSGAEVKKPGSSVKVSCKASGGTFSSYAISWVRQAPGQGLEWMGGIIPIFGTANYAQKFQGRVTITADKSTSTAYMELSSLRSEDTAVYYCARLYGYAYYGAFDYWGQGTTVTVSS
VL: DIQMTQSPSSLSASVGDRVTITCRASQGIRNDLGWYQQKPGKAPKRLIYAASSLQSGVPSRFSGGGSGTEFTLTISSLQPEDFATYYCLQNGLQPATFGQGTKVEIK
notes: also called TNC A2 2B10 Fab fragment; Fab fragment 2B10
Question: Which Kd [1] does the source give for B1 here?
Answer: The Kd was 180 nM.

Question: And the Kd [2]?
Answer: Its Kd is 17 nM.

Question: And the Kd [3]?
Answer: The Kd was 1.8 nM.

Question: Does B1 bind [4]?
Answer: Result: binds

B2: 2B10 anti-TNC A2 human IgG1 antibody (wild-type, non-glycoengineered) (antibody, V domains shown)
VH: B1 VH
VL: B1 VL
notes: also called IgG 2B10; 2B10 human IgG
Question: For B2, which Kd [5] is on record?
Answer: The Kd was 1.9 nM.

Question: What about the Kd [6] of the same binder?
Answer: The Kd was 0.21 nM.

Question: And the Kd [7]?
Answer: The Kd was 0.29 nM.

B3: 2B10_D1A2 affinity-matured anti-TNC A2 Fab clone (Fab, V domains shown)
VH: B1 VH
VL: B1 VL with D32V, A50D, S52Y
notes: From the VL sub-library; No KD is printed for this clone; also called clone 2B10_D1A2
Question: Does B3 bind [8]?
Answer: Result: binds
